Experimental findings from patent publication US20190330638A1 (MAYO FOUNDATION FOR MEDICAL EDUCATION AND RESEARCH, published 2019) are described below.

The target in the experiment is T1, Ubiquitin-H4 fusion construct (UniProt P0CG48 1-76; P62805 1-103, limits assumed).
T1 construct: Linear fusion used as control bait for pull-down/mass spectrometry; a single ubiquitin unit is meant; also called Ub-H4; Ubquitin-H4
In words: pull-down with fusion construct, mass spectrometry.

Method: A search for potential histone H4 ufmylation readers was performed. […] Next, an immunopreciptation assay was performed with STK38 antibody.

B1: serine/threonine kinase 38 (STK38) (enzyme)
chain: not shown
notes: Endogenous protein from cell lysates (pull-down/mass spectrometry, immunoprecipitation with STK38 antibody); also called NDR1
Consider B1, for which the binding result is given as “no binding”.
